Measurements reported in patent US11365264B2, “Therapeutic methods and compositions” (INSTITUT PASTEUR, priority 2013, dated 2022).

How the values were obtained:
[1] = Enz Check PLA2 enzymatic assay; conditions: for enzymatic activity (in words): recombinant PLA2 proteins produced in E. coli; for enzymatic activity of mutant vs recombinant porcine PLA2 GIB: each protein at 200 microM, FIG. 12
Method: The assay was performed with the Enz Check PLA2 assay kit from Life Technologies (ref.: E102147). […] The PLA2 activity is followed by the intensity increase of a single wavelength at 515 nm. PLA2 is detected by changes in the emission intensity ratio at 515/575 nm with excitation at 460 nm. Specific activities are expressed in amount of fluorescent substrate (U) obtained per second and per μg of enzyme in solution.
Each protein was used at 200 microM.

purified HD CD4 T cells [2] = format: cell-based, human
purified HD CD4 T cells [3] = test: Inhibition of IL-7-induced STAT5 phosphorylation and nuclear translocation; format: cell-based, human; conditions: for effect on IL-7 induced nuclear translocation of phosphoSTAT5 (NT pSTAT5): CD4 T cells, IL-7 stimulation
Method: CD4 T-cells were purified by negative selection as already described (10) then activated with 2 nM recombinant glycosylated human IL-7 (Cytheris) or 40 μg PHA (Sigma). The confocal and STED microscopy used to study cell surface microdomains (MMD) and phospho-STAT5 cellular compartment distribution has already been described (10, 12). FCS analysis of protein diffusion at the surface of living cells has also been described (10, 12
Cells were then plated on polylysine-coated glass slides for 10 min then activated by 15 min IL-7 (2 nM) or not for control (NS), then fixed by PFA (PFA, 1.5%, 15 min at 37° C. followed by 15 min at room temperature) and permeabilization by methanol (90% at −20° C.). Cells were equilibrated one hour in PBS/SVF 5% then phospho-STAT5 was then stained by rabbit anti-STAT5 labelled with goat anti-rabbit-Atto642 and analyzed by FACS or STED microscopy.
VP plasma containing PLA2sGIB was first incubated with purified HD CD4 T cells (20 min) before stimulation by IL-7 (2 nM, 15 min.). Cells were then plated on polylysine coated glass slides before fixation by PFA (1.5%) and permeabilization by methanol (90% at −20° C.). pSTAT5 was then stained by rabbit anti-STAT5 labelled with goat anti-rabbit-Atto642 and analyzed by FACS or pulsed STED microscopy.

human GIBsPLA2 = molecular target: T1, human GIBsPLA2 (Homo sapiens, UniProt P04054); test: Inhibitor test: inhibition of IL-7-induced pSTAT5 nuclear translocation by viremic plasma or PLA2 GIB; format: cell-based; conditions: 100 nM inhibitor, human PLA2G1B, FIG. 16
T1 construct: from tissue
T1 sequence (P04054 23-148): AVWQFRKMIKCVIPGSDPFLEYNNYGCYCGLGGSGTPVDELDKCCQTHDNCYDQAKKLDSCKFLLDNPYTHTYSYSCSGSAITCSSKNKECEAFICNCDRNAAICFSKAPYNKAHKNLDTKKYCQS

hPLA2 IB: recombinant human PLA2 IB (in E. coli)
Specific activity [1]: 10694.57 U/ug/s | enzymatic activity (in words) [1]: potent enzymatic activity

commercial purified porcine GIBsPLA2: commercial purified porcine GIBsPLA2
induction of abnormal membrane microdomains (aMMD) (purified HD CD4 T cells [2]): induces abnormal MDM | effect on IL-7 induced nuclear translocation of phosphoSTAT5 (NT pSTAT5) (purified HD CD4 T cells [3]): block IL-7 pSTAT5 nuclear translocation

ppPLA2 IB: Purified porcine pancreas PLA2 IB
Specific activity [1]: 7694.31 U/ug/s

pPLA2 IB: recombinant porcine PLA2 IB (in E. coli)
Specific activity [1]: 10353.57 U/ug/s

hPLA2 IID: recombinant human PLA2 IID (E. coli)
Specific activity [1]: 445.21 U/ug/s | enzymatic activity (in words) [1]: not active

mutant H48Q: porcine PLA2 GIB mutant, histidine at position 48 replaced by glutamine, produced in E. coli
induction of abnormal membrane microdomains (aMMD) (purified HD CD4 T cells [2]): lost the ability | effect on IL-7 induced nuclear translocation of phosphoSTAT5 (NT pSTAT5) (purified HD CD4 T cells [3]): lost the ability | enzymatic activity of mutant vs recombinant porcine PLA2 GIB [1]: lost all of its enzymatic activity | enzymatic activity of mutant vs recombinant porcine PLA2 GIB ([1]; listed as pPLA2GIB H48Q): Absence of activity

B1: hPLA2 X: recombinant human PLA2 X (in E. coli) (protein, UniProt O15496 43-165, looked up)
Group 10 secretory …: GILELAGTVGCVGPRTPIAYMKYGCFCGLGGHGQPRDAIDWCCHGHDCCYTRAEEAGCSPKTERYSWQCVNQSVLCGPAENKCQELLCKCDQEIANCLAQTEYNLKYLFYPQFLCEPDSPKCD
Specific activity [1]: 3318.97 U/ug/s | enzymatic activity (in words) [1]: very limited activity

B2: IL-7: recombinant glycosylated human IL-7 (Cytheris) (protein, UniProt P13232 26-177, looked up)
Interleukin-7: DCDIEGKDGKQYESVLMVSIDQLLDSMKEIGSNCLNNEFNFFKRHICDANKEGMFLFRAARKLRQFLKMNSTGDFDLHLLKVSEGTTILLNCTGQVKGRKPAALGEAQPTKSLEENKSLKEQKKLNDLCFLKRLLQEIKTCWNKILMGTKEH
modifications: glycosylated
MMD size (purified HD CD4 T cells [2]): 90 nm | number of MMD per CD4 T cell (purified HD CD4 T cells [2]): 300 MMD/cell | phospho-STAT5 found in the nucleus (purified HD CD4 T cells [3]; HD CD4 T cells, five minutes following IL-7 stimulation): 50%

B3: hPLA2 IIA: recombinant human PLA2 IIA (in E. coli) (protein, UniProt P14555 21-144, looked up)
Phospholipase A2, membrane …: NLVNFHRMIKLTTGKEAALSYGFYGCHCGVGGRGSPKDATDRCCVTHDCCYKRLEKRGCGTKFLSYKFSNSGSRITCAKQDSCRSQLCECDKAAATCFARNKTTYNKKYQYYSNKHCRGSTPRC
Specific activity [1]: 214.93 U/ug/s | enzymatic activity (in words) [1]: not active

B4: recombinant PLA2 soluble receptor: soluble murine receptor specific for PLA2 GIB, SEQ ID NO: 22 (protein)
chain: MVQWLAMLQLLWLQQLLLLGIHQGIAQDLTHIQEPSLEWRDKGIFIIQSESLKTCIQAGKSVLTLENCKQPNEHMLWKWVSDDHLFNVGGSGCLGLNISALEQPLKLYECDSTLISLRWHCDRKMIEGPLQYKVQVKSDNTVVARKQIHRWIAYTSSGGDICEHPSRDLYTLKGNAHGMPCVFPFQFKGHWHHDCIREGQKEHLLWCATTSRYEEDEKWGFCPDPTSMKVFCDATWQRNGSSRICYQFNLLSSLSWNQAHSSCLMQGGALLSIADEDEEDFIRKHLSKVVKEVWIGLNQLDEKAGWQWSDGTPLSYLNWSQEITPGPFVEHHCGTLEVVSAAWRSRDCESTLPYICKRDLNHTAQGILEKDSWKYHATHCDPDWTPFNRKCYKLKKDRKSWLGALHSCQSNDSVLMDVASLAEVEFLVSLLRDENASETWIGLSSNKIPVSFEWSSGSSVIFTNWYPLEPRILPNRRQLCVSAEESDGRWKVKDCKERLFYICKKAGQVPADEQSGCPAGWERHGRFCYKIDTVLRSFEEASSGYYCSPALLTITSRFEQAFITSLISSVAEKDSYFWIALQDQNNTGEYTWKTVGQREPVQYTYWNTRQPSNRGGCVVVRGGSSLGRWEVKDCSDFKAMSLCKTPVKIWEKTELEERWPFHPCYMDWESATGLASCFKVFHSEKVLMKRSWREAEAFCEEFGAHLASFAHIEEENFVNELLHSKFNWTQERQFWIGFNRRNPLNAGSWAWSDGSPVVSSFLDNAYFEEDAKNCAVYKANKTLLPSNCASKHEWICRIPRDVRPKFPDWYQYDAPWLFYQNAEYLFHTHPAEWATFEFVCGWLRSDFLTIYSAQEQEFIHSKIKGLTKYGVKWWIGLEEGGARDQIQWSNGSPVIFQNWDKGREERVDSQRKRCVFISSITGLWGTENCSVPLPSICKRVKIWVIEKEKPPTQPGTCPKGWLYFNYKCFLVTIPKDPRELKTWTGAQEFCVAKGGTLVSIKSELEQAFITMNLFGQTTNVWIGLQSTNHEKWVNGKPLVYSNWSPSDIINIPSYNTTEFQKHIPLCALMSSNPNFHFTGKWYFDDCGKEGYGFVCEKMQDTLEHHVNVSDTSAIPSTLEYGNRTYKIIRGNMTWYAAGKSCRMHRAELASIPDAFHQAFLTVLLSRLGHTHWIGLSTTDNGQTFDWSDGTKSPFTYWKDEESAFLGDCAFADTNGRWHSTACESFLQGAICHVVTETKAFEHPGLCSETSVPWIKFKGNCYSFSTVLDSRSFEDAHEFCKSEGSNLLAIRDAAENSFLLEELLAFGSSVQMVWLNAQFDNNNKTLRWFDGTPTEQSNWGLRKPDMDHLKPHPCVVLRIPEGIWHFTPCEDKKGFICKMEAGIPAVTAQPEKGLSHSIVPVTVTLTLIIALGIFMLCFWIYKQKSDIFQRLTGSRGSYYPTLNFSTAHLEENILISDLEKNTNDEEVRDAPATESKRGHKGRPICISP
modifications: soluble receptor
effect on activity of PLA2sGIB on NT of pSTAT5 (human GIBsPLA2): significantly block the negative effect of PLA2sGIB on the NT of pSTAT5 | effect on activity of PLA2sGIB on NT of pSTAT5 (human GIBsPLA2; listed as sMR): inhibits the activity of human PLA2G1B
